Assay results published in article PMC5051949, “Mechanism of Rifampicin Inactivation in Nocardia farcinica” (PLoS ONE, 2016).

Key:
[1] = biological target: T1, RifMO (rifampicin monooxygenase) (Nocardia farcinica, UniProt Q5YTV5); test: steady-state oxygen consumption (oxygraph); assay type: biochemical; conditions: substrate inhibition by NADPH; 30 μM Rif, 100 mM sodium phosphate pH 7.5, 25°C
T1 construct: gene rox; full-length, codon optimized, pET15b N-terminal 6xHis tag cleaved with thrombin, expressed in E. coli
T1 sequence (Q5YTV5 whole entry): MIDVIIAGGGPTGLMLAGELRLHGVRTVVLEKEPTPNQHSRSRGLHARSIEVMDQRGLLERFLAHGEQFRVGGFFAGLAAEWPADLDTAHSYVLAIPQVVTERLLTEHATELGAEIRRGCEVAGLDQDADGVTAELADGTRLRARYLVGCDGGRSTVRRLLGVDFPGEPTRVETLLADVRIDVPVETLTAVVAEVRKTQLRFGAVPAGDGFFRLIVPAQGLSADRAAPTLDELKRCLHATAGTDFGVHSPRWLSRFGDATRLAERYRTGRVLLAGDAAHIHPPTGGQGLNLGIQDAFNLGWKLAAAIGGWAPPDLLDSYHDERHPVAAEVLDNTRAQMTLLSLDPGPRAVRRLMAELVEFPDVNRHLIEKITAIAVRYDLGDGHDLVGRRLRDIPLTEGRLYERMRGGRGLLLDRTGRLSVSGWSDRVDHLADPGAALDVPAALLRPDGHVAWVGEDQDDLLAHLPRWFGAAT
Source text: (§1) steady-state oxygen consumption (oxygraph) on RifMO (rifampicin monooxygenase)

[2] = system: NC(=O)C1=CN([C@@H]2O[C@H](COP(=O)(O)OP(=O)(O)OC[C@H]3O[C@@H](n4cnc5c(N)ncnc54)[C@H](O)[C@@H]3O)[C@@H](O)[C@H]2O)C=CC1; test: steady-state oxygen consumption (oxygraph); assay type: biochemical, Nocardia farcinica; conditions: 30 μM Rif, 100 mM sodium phosphate pH 7.5, 25°C, varied: cofactor
Source text: as §1

[3] = system: CO[C@H]1/C=C/O[C@@]2(C)Oc3c(C)c(O)c4c(O)c(c(/C=N/N5CCN(C)CC5)c(O)c4c3C2=O)NC(=O)/C(C)=C\C=C\[C@H](C)[C@H](O)[C@@H](C)[C@@H](O)[C@@H](C)[C@H](OC(C)=O)[C@@H]1C; test: steady-state oxygen consumption (oxygraph); assay type: biochemical, Nocardia farcinica; conditions: 1 mM NADPH, 100 mM sodium phosphate pH 7.5, 25°C
Source text: as §1

[4] = system: NC(=O)C1=CN([C@@H]2O[C@H](COP(=O)(O)OP(=O)(O)OC[C@H]3O[C@@H](n4cnc5c(N)ncnc54)[C@H](OP(=O)(O)O)[C@@H]3O)[C@@H](O)[C@H]2O)C=CC1; test: steady-state oxygen consumption (oxygraph); assay type: biochemical, Nocardia farcinica; conditions: 30 μM Rif, 100 mM sodium phosphate pH 7.5, 25°C, varied: cofactor
Source text: as §1

[5] = biological target: T1, RifMO (rifampicin monooxygenase); test: flavin absorbance change at […] nm (spectral titration); assay type: binding

NC(=O)C1=CN([C@@H]2O[C@H](COP(=O)(O)OP(=O)(O)OC[C@H]3O[C@@H](n4cnc5c(N)ncnc54)[C@H](OP(=O)(O)O)[C@@H]3O)[C@@H](O)[C@H]2O)C=CC1 [NADPH]
KI [1]: 33000 ± 4000 µM

RifMO (rifampicin monooxygenase) (Nocardia farcinica IFM 10152)
Km [2]: 266 ± 25 µM | kcat [2]: 3.3 ± 0.06 s⁻¹ | kcat/Km [2]: 12600 ± 1000 M⁻¹ s⁻¹ | Km [3]: 5.8 ± 0.88 µM | kcat [3]: 4 ± 0.16 s⁻¹ | kcat/Km [3]: 700000 ± 81300 M⁻¹ s⁻¹ | Km [4]: 90 ± 10 µM | kcat [4]: 4 ± 0.1 s⁻¹ | kcat/Km [4]: 43100 ± 3700 M⁻¹ s⁻¹

CO[C@H]1/C=C/O[C@@]2(C)Oc3c(C)c(O)c4c(O)c(c(/C=N/N5CCN(C)CC5)c(O)c4c3C2=O)NC(=O)/C(C)=C\C=C\[C@H](C)[C@H](O)[C@@H](C)[C@@H](O)[C@@H](C)[C@H](OC(C)=O)[C@@H]1C [Rif, rifampicin]
Kd [5]: 9.5 ± 2.5 µM
